Source: publication doi:10.1101/691972, “Structure of D. melanogaster ARC1 reveals a repurposed molecule with characteristics of retroviral Gag” (bioRxiv, 2019)

How the values were obtained:
[1] = target: the molecule itself; test: crystal structure; Se-Met dARC1 CA; orthorhombic (P212121, 1.7 Å) and hexagonal (P6122, 2.3 Å) crystal forms, each with a dimer in the asymmetric unit; NaCl, HEPES pH 7.5 type conditions, 18 °C
[2] = target: the molecule itself; test: SEC-MALS; SEC-MALLS; 25-400 µM loaded in 100 µL on Superdex INCREASE 200 10/300 GL; 20 mM Tris-HCl, 150 mM NaCl, 0.5 mM TCEP, 3 mM NaN3, pH 8.0

B1: Se-Met substituted dARC1 CA (residues S39-N205) (domain or fragment, Drosophila melanogaster)
chain: SRGKGNFSACTHSFGGTRDHDVVEEFIGNIETYKDVEGISDENALKGISLLFYGMASTWWQGVRKEATTWKEAIALIREHFSPTKPAYQIYMEFFQNKQDDHDPIDTFVIQKRALLAQLPSGRHDEETELDLLFGLLNIKYRKHISRHSVHTFKDLLEQGRIIEHNNPLE
modifications: seleno-methionine substituted (incorporation confirmed by ESI-MS)
notes: dARC1, Drosophila melanogaster, Uniprot Q7K1U0, residues 39-205 (CA domain); the added N-terminal Met was processed; Protein of the two solved crystal forms (orthorhombic and hexagonal); also called SeMet dARC1 CA; seleno-methionine derivative protein; source: E. coli B834 (DE3) in seleno-methionine medium, purified by the identical procedure (Ni-NTA, carboxypeptidase A, SEC); not shown: His6, …
binding result [1]: binds

B2: dARC1 CA (F133A) (domain or fragment, Drosophila melanogaster)
chain: SRGKGNFSACTHSFGGTRDHDVVEEFIGNIETYKDVEGISDENALKGISLLFYGMASTWWQGVRKEATTWKEAIALIREHFSPTKPAYQIYMEFAQNKQDDHDPIDTFVIQKRALLAQLPSGRHDEETELDLLFGLLNIKYRKHISRHSVHTFKDLLEQGRIIEHNNPLE
notes: dARC1, Drosophila melanogaster, Uniprot Q7K1U0, residues 39-205 (CA domain) with F133A; also called F133A mutation; source: E. coli BL21 (DE3), purified
binding result [2]: binds

B3: dARC1 CA (capsid domain region of D. melanogaster dARC1, residues S39-N205) (domain or fragment, Drosophila melanogaster)
chain: SRGKGNFSACTHSFGGTRDHDVVEEFIGNIETYKDVEGISDENALKGISLLFYGMASTWWQGVRKEATTWKEAIALIREHFSPTKPAYQIYMEFFQNKQDDHDPIDTFVIQKRALLAQLPSGRHDEETELDLLFGLLNIKYRKHISRHSVHTFKDLLEQGRIIEHNNPLE
notes: dARC1, Drosophila melanogaster, Uniprot Q7K1U0, residues 39-205 (CA domain); the added N-terminal Met was processed (confirmed by ESI-MS); Native (non-SeMet) protein used for SEC-MALLS and AUC; also called dARC CA; dARC1 CA (S39-N205); source: E. coli BL21 (DE3), purified (Ni-NTA, carboxypeptidase A digestion of the His-tag, Superdex 75 SEC); not shown: His6, C-terminal, cleaved
stoichiometry N [2]: 2
